US20170015738A1 (H LUNDBECK A S, published 2017)

B1: IPN002 (antibody, V domains shown)
VH: EVHLVESGGALVKPGGSLKLSCAASGFSFSKYGMSWVRQTPDKRLEWVATISSSGSRTYYPDSVKGQFTISRDNAKNTLYLQMSSLKSEDTAMYYCSISWDGAMDYWGQGTSVTVSS
VL: DVLMTQTPLSLPVSLGDQASISCKSSQSIVHSNGNTYLEWYLQKPGQSPKLLVYKVSNRFSGVPDRFSGSGSGTDFTLKISRVEAEDLGTYYCFQGSLVPWAFGGGTKLEIK
B2: Antibody C10-2 (murine) (antibody, mouse IgG1, kappa, V domains shown)
VH: QVQLQQSDAELVKPGASVKISCKASGYTFTDRTIHWVKQRPEQGLEWIGYIYPGDGSTKYNENFKGKATLTADKSSSTAYMQLNSLTSEDSAVYFCARRGAMDYWGQGTSVTVSS
VL: DVQMIQSPSSLSASLGDIVTMTCQASQGTSINLNWFQQKPGKAPKLLIYGASNLEDGVPSRFSGSRYGTDFTLTISSLEDEDMATYFCLQHTYLPFTFGSGTKLEIKR
notes: Mouse monoclonal from hybridoma; also called mC10-2; mouse C10-2
B3: Antibody D1.2 (antibody, mouse IgG2b, kappa, V domains shown)
VH: QVQLQQSGAELVRPGASVTLSCKASGNTFTDYEIHWVKQTPVHGLEWIGAIDPETGNTAYNQKFKGKARLTADKSSSTAYMELRSLTSEDSAVYYCTRSRGFDYWGQGTTLTVSS
VL: DVMMTQTPLSLPVSLGDQASISCRSSQSLVHSNGNTYLHWHLQKPGQSPKFLIYKVSNRFSGVPDRFSGSGSGTDFTLKISRVEAEDLGVYFCSQSTHVPFTFGSGTKLEIKR
notes: Mouse monoclonal; also called mD1.2; mouse D1.2

Legend:
[1] = target: T1, pathological hyperphosphorylated tau from human Alzheimer's disease brain, sarkosyl-insoluble P3 fraction (human, UniProt P10636 2-758, hyperphosphorylated; phosphoserine at 396 (other sites not listed)); test: MSD ELISA on immobilised P3 tau; ratio of binding to AD over healthy control at saturation
T1 construct: Brain-derived mixture of tau isoforms (bands at 54, 64, 69 and 74 kDa); also called AD-P3; AD P3

[2] = target: T2, tau antigens from human AD brain, S1(p) fraction (human, UniProt P10636 2-758, phosphorylated; sites not listed for this fraction); test: fluid phase MSD ELISA: inhibition of tau antigen capture
T2 construct: Brain-derived; isoform mix; also called AD-S1(p); AD s1(p)
Experimental: B: The samples were incubated on MSD plates coated with AD-P3 (1 μg/ml) for 2 hours followed by wash and detection of captured Tau antigens using sulfo tagged anti-total TauG antibodies.

T2 sequence (P10636 other isoform, or with tags, fused parts or gaps limits assumed): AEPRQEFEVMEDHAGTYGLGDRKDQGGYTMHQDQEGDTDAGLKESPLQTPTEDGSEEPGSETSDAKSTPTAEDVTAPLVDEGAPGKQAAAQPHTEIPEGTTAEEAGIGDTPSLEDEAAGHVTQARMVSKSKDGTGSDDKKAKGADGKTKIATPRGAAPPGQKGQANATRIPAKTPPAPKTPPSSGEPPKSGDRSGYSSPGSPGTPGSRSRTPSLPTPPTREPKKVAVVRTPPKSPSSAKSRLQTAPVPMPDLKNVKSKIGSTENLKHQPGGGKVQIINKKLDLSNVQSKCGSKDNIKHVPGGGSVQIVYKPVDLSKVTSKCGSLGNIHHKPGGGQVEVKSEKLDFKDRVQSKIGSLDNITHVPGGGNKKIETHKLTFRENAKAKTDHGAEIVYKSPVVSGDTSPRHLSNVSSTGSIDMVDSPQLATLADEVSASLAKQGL
T1 sequence (P10636 other isoform, or with tags, fused parts or gaps limits assumed): as above

AD/ctrl [1] [fold] | IC50 [2] [nM] | Binder
3 | – | B1
– | 11 | B2
– | 503 | B3
